This is an account of results in PMC5777258, “Phosphorylation of human enhancer filamentation 1 (HEF1) stimulates interaction with Polo-like kinase 1 leading to HEF1 localization to focal adhesions” (The Journal of Biological Chemistry, 2017).

Square brackets hold non-standard residues; d marks the D form. Ends that are not written are not given here. pT = C[C@@H](OP(=O)(O)O)[C@H](N)C(=O)O

In test [1] the target is HEF1, endogenous (UniProt Q14511). Briefly: GST pull-down (bead-conjugated GST-PBD) with anti-HEF1 immunoblot, bands quantified with ImageJ. Particulars: HeLa total cell lysate, parent: 1.0.
HEF1, endogenous, sequence (Q14511 whole entry, the tested form may be a part): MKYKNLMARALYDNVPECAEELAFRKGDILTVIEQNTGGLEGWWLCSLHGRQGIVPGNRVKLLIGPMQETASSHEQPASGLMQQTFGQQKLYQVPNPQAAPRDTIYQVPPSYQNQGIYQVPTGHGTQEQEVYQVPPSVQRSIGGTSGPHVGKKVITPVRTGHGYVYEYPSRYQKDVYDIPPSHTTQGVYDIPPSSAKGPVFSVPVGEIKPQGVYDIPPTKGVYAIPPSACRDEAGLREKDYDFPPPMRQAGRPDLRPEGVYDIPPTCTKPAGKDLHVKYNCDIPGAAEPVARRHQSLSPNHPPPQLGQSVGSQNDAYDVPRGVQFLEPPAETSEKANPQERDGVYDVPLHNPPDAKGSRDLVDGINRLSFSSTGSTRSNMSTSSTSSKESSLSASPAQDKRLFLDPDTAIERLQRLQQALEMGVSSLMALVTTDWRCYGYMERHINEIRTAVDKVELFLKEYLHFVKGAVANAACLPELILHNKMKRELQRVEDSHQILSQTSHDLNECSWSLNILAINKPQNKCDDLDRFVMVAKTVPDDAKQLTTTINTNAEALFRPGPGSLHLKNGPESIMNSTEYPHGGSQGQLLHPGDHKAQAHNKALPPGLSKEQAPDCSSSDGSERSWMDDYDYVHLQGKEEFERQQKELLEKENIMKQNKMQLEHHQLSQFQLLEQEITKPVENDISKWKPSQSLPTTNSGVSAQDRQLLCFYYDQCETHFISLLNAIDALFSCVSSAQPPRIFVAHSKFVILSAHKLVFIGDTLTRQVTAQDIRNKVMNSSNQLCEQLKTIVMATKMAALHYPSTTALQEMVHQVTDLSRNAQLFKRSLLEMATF
The target in test [2] is T1, Polo box domain of mouse Plk1 (residues 367-603), for crystallization (mouse, UniProt Q07832 367-603).
T1 construct: Polo box domain of mouse Plk1, Swiss Prot entry Q07832, residues 367-603; residues 371-593 are in the final model; TEV site ENLYFQS between the tag and the PBD, cleaved between Q and S: a serine is left before the PBD; also called Plk1 PBD; Plk1-PBD; source: E. coli BL21 (DE3) CodonPlus RIL, purified (Ni-NTA, TEV digestion, Superdex-75 gel filtration); not shown: His6, N-terminal, cleaved
T1 sequence (Q07832 367-603): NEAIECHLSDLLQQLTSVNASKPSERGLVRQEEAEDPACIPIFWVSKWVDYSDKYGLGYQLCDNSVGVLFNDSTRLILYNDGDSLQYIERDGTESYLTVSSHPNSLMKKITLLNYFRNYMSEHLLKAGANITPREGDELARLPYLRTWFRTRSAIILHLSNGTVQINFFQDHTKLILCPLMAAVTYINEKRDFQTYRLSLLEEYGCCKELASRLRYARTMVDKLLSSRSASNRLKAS
The test can be described thus: crystal structure; Plk1 PBD (10 mg/ml) with pThr-804 peptide added in a 1:3 molar ratio, incubated overnight; sitting-drop vapor diffusion at 295 K, 0.1 M sodium citrate pH 5.5, 15% PEG 6000; 2.9 Å. Particulars: both partners purified.

In the case of “GST-Plk1 PBD WT (Polo box domain of Plk1) H538A; K540M”, the ratio to parent in test [1] (asynchronously growing (Async.)) is 0.1; in test [1] (nocodazole (Noc)-treated (M phase)) it was 0.2; in test [1] (thymidine (Thy)-treated (S phase)), 0.1.

B1: HEF1 pThr-804 peptide (799-LHYPSpTTALQE-809), free, for crystallization (peptide)
peptide: LHYPS[pT]TALQE
notes: HEF1 (NEDD9), human, aa 799-809; 800-HYPSpTTAL-807 is in the final model; source: synthetic peptide
On to B1, for which the binding result in test [2] is reported as “binds”.
